B1: Epsin-1 (Saccharomyces cerevisiae), Q12518 (parent)
chain: MSKQFVRSAKNLVKGYSSTQVLVRNATSNDNHQVSKDSLIELAEKSYDSADFFEIMDMLDKRLNDKGKYWRHIAKALTVIDYLIRFGSENCVLWCRENLYIIKTLKEFRHEDDEGIDQGQIVRVKAKELTALLSDDERLNEERNMNIKGRNRKGRRRRGTGRSDENDDDLQRAISASRLTAEEDERRRKQDEDYETALQLSKEEEELKRLQDLQRMQQQQGQQQLQQPMYYDIFGNPITPEEYAQFQLQQQQQQQQQQLQQQPMYYDVFGNPITPEELAQFQQQQQLQEQQYLASMQQQQQAMSNNPFAKSEQSSSSPKRNQLVAASSPQQLQQQKQQEPLIQNRTGNQSMTDKYSKLNELLATGTGIDTFGNVGEARIPAQHTKTGTFINSQGTGYRQVSDDPNHNPFLNSQYTGLPSTSVVPTQTGYGFGNQSQQQSQNNGSNNRGYTLIDL
partner: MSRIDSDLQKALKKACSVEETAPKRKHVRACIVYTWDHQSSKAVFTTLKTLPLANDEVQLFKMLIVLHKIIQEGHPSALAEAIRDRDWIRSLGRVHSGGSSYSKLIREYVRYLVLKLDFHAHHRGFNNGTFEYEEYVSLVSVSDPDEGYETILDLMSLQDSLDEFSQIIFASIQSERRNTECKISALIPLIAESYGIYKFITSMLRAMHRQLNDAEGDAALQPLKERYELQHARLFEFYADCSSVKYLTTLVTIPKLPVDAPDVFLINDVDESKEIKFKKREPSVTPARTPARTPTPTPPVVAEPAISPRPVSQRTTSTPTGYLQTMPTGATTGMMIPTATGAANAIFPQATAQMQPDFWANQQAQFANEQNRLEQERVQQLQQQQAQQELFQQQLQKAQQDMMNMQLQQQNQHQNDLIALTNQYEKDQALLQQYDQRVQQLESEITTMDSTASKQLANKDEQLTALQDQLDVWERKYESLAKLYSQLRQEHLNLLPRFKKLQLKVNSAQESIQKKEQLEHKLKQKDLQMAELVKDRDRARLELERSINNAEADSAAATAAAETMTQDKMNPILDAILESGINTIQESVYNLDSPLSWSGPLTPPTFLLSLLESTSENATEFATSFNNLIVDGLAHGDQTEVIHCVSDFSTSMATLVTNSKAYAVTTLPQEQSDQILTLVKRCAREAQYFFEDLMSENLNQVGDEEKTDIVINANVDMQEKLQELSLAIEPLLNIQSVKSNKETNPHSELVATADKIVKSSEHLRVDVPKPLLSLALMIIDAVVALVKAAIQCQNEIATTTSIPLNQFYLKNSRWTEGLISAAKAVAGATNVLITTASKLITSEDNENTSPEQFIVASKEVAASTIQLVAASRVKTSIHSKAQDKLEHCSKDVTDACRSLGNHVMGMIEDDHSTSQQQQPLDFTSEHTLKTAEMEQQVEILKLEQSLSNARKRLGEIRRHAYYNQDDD

Variants of: B1
Details: with sla2_yeast SLA2, P33338

Variant | effect of a mutation on the interaction
MSKQFVRSAKNLVKGYSSTQVLVRNATSNDNHQVSKDSLIELAEKSYDSADFFEIMDMLDKRLNDKGKYWRHIAKALTVIDYLIRFGSENCVLWCRENLYIIKALKEFRHEDDEGIDQGQIVRVKAKELTALLSDDERLNEERNMNIKGRNRKGRRRRGTGRSDENDDDLQRAISASRLTAEEDERRRKQDEDYETALQLSKEEEELKRLQDLQRMQQQQGQQQLQQPMYYDIFGNPITPEEYAQFQLQQQQQQQQQQLQQQPMYYDVFGNPITPEELAQFQQQQQLQEQQYLASMQQQQQAMSNNPFAKSEQSSSSPKRNQLVAASSPQQLQQQKQQEPLIQNRTGNQSMTDKYSKLNELLATGTGIDTFGNVGEARIPAQHTKTGTFINSQGTGYRQVSDDPNHNPFLNSQYTGLPSTSVVPTQTGYGFGNQSQQQSQNNGSNNRGYTLIDL [T104A] | disrupting interaction strength
